According to PMC9352680, “A comprehensive thermodynamic model for RNA binding by the Saccharomyces cerevisiae Pumilio protein PUF4”:
Where a chain is given by its changes, count along the chain named. Names and notes keep the numbering of the source.

T1: PUF4 RNA-binding domain (Saccharomyces cerevisiae, UniProt P25339 537-888)
T1 sequence: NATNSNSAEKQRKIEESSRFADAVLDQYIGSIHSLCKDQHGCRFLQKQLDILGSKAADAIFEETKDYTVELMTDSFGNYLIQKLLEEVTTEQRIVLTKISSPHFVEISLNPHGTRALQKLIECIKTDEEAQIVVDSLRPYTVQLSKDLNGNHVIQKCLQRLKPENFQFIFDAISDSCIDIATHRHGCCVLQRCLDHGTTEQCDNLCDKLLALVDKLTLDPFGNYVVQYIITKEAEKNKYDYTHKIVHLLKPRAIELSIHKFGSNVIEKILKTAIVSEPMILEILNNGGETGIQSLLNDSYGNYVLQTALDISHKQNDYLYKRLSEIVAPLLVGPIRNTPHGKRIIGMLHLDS

B1: Ia_S2_P3E.1_K3.1_C3.1_H3.1_[T1A]_A3.1_F3.1_T3.1 (ssRNA)
RNA: UUUGAUUAAUAUGAUAUCGUUCUUUCUAGUAUAUAUUCUUUCUCGAUAUCAUAUUAAUCUUU
B2: Ib_S2_P3E.1_K3.1_C3.1_H3.1_[T1A]_A3.1_F3.1_[A8G]_T3.1 (ssRNA)
RNA: B1 RNA with A35G
B3: Ib_S2_P3E.1_K3.1_C3.1_H3.1_[T1C]_A3.1_F3.1_[A8G]_T3.1 (ssRNA)
RNA: B1 RNA with A28C, A35G
B4: Ib_S2_P3E.1_K3.1_C3.1_H3.1_[T1G]_A3.1_F3.1_[A8T]_T3.1 (ssRNA)
RNA: B1 RNA with A28G, A35U

Biological target: T1, PUF4 RNA-binding domain
Test: Mg; RNA-MaP; 20 mM Na-HEPES pH 7.4, 30 mM KOAc, 0.75 mM MgCl2, 0.1% Tween-20, 5% glycerol, 0.1 mg/mL BSA, 2 mM DTT; 25 C; 0.0125-409.6 nM protein
Details: tags: N-His6-TEV cleaved; C-SNAP kept, Cy3B-labelled; label: tethered on chip by stalled RNA polymerase

Binder | Kd [nM]
UCUCUUUGUUCUCAUUAUUAUCUCUU (ssRNA) [Ie_S1_P5E.1_K5.1_C5.1_H5.1_[+3TCTC]_A5.1_F5.1_T5.1] | 456
UCUCUUUGUUUAUUAUUAUCUCUU (ssRNA) [Ie_S1_P5E.1_K5.1_C5.1_H5.1_[+2TT]_A5.1_F5.1_T5.1] | 8.58
UCUCUUUGUCCUCAUUAUUAUCUCUU (ssRNA) [Ie_S1_P5E.1_K5.1_C5.1_H5.1_[+3CCTC]_A5.1_F5.1_T5.1] | 738
UCUCUUUGUCUCAUUAUUAUCUCUU (ssRNA) [Ie_S1_P5E.1_K5.1_C5.1_H5.1_[+3CTC]_A5.1_F5.1_T5.1] | 36.6
UCUCUUUGCUCUUAUUAUUAUCUCUU (ssRNA) [Ie_S1_P5E.1_K5.1_C5.1_H5.1_[+2CTCT]_A5.1_F5.1_T5.1] | > 2300
UCUCUUUGUCCCAUUAUUAUCUCUU (ssRNA) [Ie_S1_P5E.1_K5.1_C5.1_H5.1_[+3CCC]_A5.1_F5.1_T5.1] | 66.2
UCUCUUUGUCUCUUAUUAUUAUCUCUU (ssRNA) [Ie_S1_P5E.1_K5.1_C5.1_H5.1_[+2TCTCT]_A5.1_F5.1_T5.1] | 332
UCUCUUUGUCCUAUUAUUAUCUCUU (ssRNA) [Ie_S1_P5E.1_K5.1_C5.1_H5.1_[+3CCT]_A5.1_F5.1_T5.1] | 110
UCUCUUUGUUUCAUUAUUAUCUCUU (ssRNA) [Ie_S1_P5E.1_K5.1_C5.1_H5.1_[+3TTC]_A5.1_F5.1_T5.1] | 22.2
UCUCUUUGUUAUUAUUAUCUCUU (ssRNA) [Ie_S1_P5E.1_K5.1_C5.1_H5.1_[+2T]_A5.1_F5.1_T5.1] | 64.9
UCUCUUUGUUUCCAUUAUUAUCUCUU (ssRNA) [Ie_S1_P5E.1_K5.1_C5.1_H5.1_[+3TTCC]_A5.1_F5.1_T5.1] | 126
UCUCUUUGUUCAUUAUUAUCUCUU (ssRNA) [Ie_S1_P5E.1_K5.1_C5.1_H5.1_[+3TC]_A5.1_F5.1_T5.1] | 10.9
B1 | 931
B2 | > 2300
B3 | > 2300
B4 | 955
UCUCUUUGCUUUAUUAUUAUCUCUU (ssRNA) [Ie_S1_P5E.1_K5.1_C5.1_H5.1_[+2CTT]_A5.1_F5.1_T5.1] | 1920
UCUCUUUGUUCUAUUAUUAUCUCUU (ssRNA) [Ie_S1_P5E.1_K5.1_C5.1_H5.1_[+3TCT]_A5.1_F5.1_T5.1] | 32.9
UCUCUUUGCUUAUUAUUAUCUCUU (ssRNA) [Ie_S1_P5E.1_K5.1_C5.1_H5.1_[+2CT]_A5.1_F5.1_T5.1] | 2090
UCUCUUUGUUUUAUUAUUAUCUCUU (ssRNA) [Ie_S1_P5E.1_K5.1_C5.1_H5.1_[+3TTT]_A5.1_F5.1_T5.1] | 28.2
UCUCUUUGUCUCUAUUAUUAUCUCUU (ssRNA) [Ie_S1_P5E.1_K5.1_C5.1_H5.1_[+2TCTC]_A5.1_F5.1_T5.1] | 405
UCUCUUUGCUCUAUUAUUAUCUCUU (ssRNA) [Ie_S1_P5E.1_K5.1_C5.1_H5.1_[+2CTC]_A5.1_F5.1_T5.1] | > 2300
UCUCUUUGUCUUAUUAUUAUCUCUU (ssRNA) [Ie_S1_P5E.1_K5.1_C5.1_H5.1_[+3CTT]_A5.1_F5.1_T5.1] | 41.9
UCUCUUUGUCUAUUAUUAUCUCUU (ssRNA) [Ie_S1_P5E.1_K5.1_C5.1_H5.1_[+2TC]_A5.1_F5.1_T5.1] | 18.6
UCUCUUUGUCAUUAUUAUCUCUU (ssRNA) [Ie_S1_P5E.1_K5.1_C5.1_H5.1_[+3C]_A5.1_F5.1_T5.1] | 99.4
UCUCUUUGUUCCAUUAUUAUCUCUU (ssRNA) [Ie_S1_P5E.1_K5.1_C5.1_H5.1_[+3TCC]_A5.1_F5.1_T5.1] | 36.5
